target: T1, PKC-epsilon (Homo sapiens, UniProt Q02156); assay: In vitro kinase assay: peptide phosphorylation by PKC-epsilon; assay type: biochemical; conditions: peptide concentration 1 uM
T1 construct: purchased Calbiochem
T1 sequence (Q02156 1-737): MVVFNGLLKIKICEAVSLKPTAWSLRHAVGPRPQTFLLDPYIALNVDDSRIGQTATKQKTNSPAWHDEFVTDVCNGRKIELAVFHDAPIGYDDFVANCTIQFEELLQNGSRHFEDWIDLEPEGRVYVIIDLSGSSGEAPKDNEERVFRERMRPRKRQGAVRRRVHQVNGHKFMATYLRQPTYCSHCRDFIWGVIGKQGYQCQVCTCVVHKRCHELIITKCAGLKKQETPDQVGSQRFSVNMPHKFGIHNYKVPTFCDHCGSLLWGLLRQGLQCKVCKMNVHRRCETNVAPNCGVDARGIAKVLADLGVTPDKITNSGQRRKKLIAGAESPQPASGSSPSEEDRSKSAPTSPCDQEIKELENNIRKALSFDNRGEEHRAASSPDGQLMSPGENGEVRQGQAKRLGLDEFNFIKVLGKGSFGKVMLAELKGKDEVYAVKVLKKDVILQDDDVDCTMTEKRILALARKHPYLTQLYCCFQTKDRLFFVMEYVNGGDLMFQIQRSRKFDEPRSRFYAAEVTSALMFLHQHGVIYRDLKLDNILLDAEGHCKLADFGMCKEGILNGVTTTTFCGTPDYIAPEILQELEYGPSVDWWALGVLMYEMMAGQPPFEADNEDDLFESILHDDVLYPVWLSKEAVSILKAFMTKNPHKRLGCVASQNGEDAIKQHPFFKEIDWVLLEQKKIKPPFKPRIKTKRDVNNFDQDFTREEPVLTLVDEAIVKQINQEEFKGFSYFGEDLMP
Method: (§1) Catalytically active preparations of the kinases of interest were either purchased or prepared. Purchased and tested active kinase preparations including the following: PKC-alpha, PKC-delta, PKC-epsilon, PKC-zeta, PKC-mu, PKA, PKG from Calbiochem, ROK alpha/ROCK-II, active from Upstate Biotechnology, and AKT1 from Panvera.
(§2) The conditions of the kinase assay and the amount of active kinase used varied with the kinase and with the accuracy needed. For a typical experiment, 5-20 ng of kinase was used per well and each peptide pool was assayed in duplicate wells. Note that the absolute amount of kinase used was not usually a critical parameter, because the desired information related to specificity of the kinase not its absolute activity, and robustness of the assay depends on comparisons of the same amount of kinase on different peptides. The combination of kinase concentration and assay duration was modified to assure that the stoichiometry of peptide phosphorylation never exceeded 5%. The choice of kinase buffer depended on the kinase being analyzed. For studies of PKC, 100 mM HEPES, 0.05% Triton-X100, 1 mM CaCl2, 20 mM MgCl2, 0.2 mg/ml phosphatidyl serine (Avanti Polar Lipids), PMA 100 ng/ml was typically used. The lipid stock was prepared by transferring 3 mg phosphatidyl serine into iced mixture of 450 μl water plus 50 μl of 10% Triton-X100, sonicating 10 times on ice for 1 sec each.
(§3) The kinase reaction mixture was assembled by sequential addition to a tube held on ice of: 5 μl peptide (100 μM for final concentration of 10 μM), 15 μl of kinase (typically 5 ng/well, in appropriate kinase buffer), 30 μl of ATP (1 uCi/well of ^32P-gamma ATP in a stock of 167 μM cold ATP in the kinase buffer; for final concentration for 100 μM ATP). The mixture was rapidly warmed to desired reaction temperature (30° C. for PKC) and incubated for the desired duration (usually 10 minutes). The kinase assay was terminated by transfer to 4° C. water batch, and rapid addition of an equal volume (50 μl) of stop solution [0.1M ATP+0.1M EDTA in water, pH 8].
(§4) The peptides were then captured from the reaction mixture by transfer to a Reacti-Bind Streptavidin High Binding Capacity Coated Plates (HBC) (Pierce Biotechnology) as follows. The HBC plates were pre-rinsed three times with PBS/Tween PBS/Tween20 0.05% (PBS/Tween). Part of all of the reaction mixture was then transferred wells of a HBC plate pre-filled with 90 μl of phosphate-buffered saline (PBS); typically each aliquots of each phosphorylation reaction were transferred to duplicate HBC plates to assure accuracy by additional replication
(§5) For kinase assays done at the standard peptide concentration of 10 μM, the peptide concentration in the reaction mixture becomes 5 μM after addition of the stop solution; consequently 10 μl of the reaction (50 pMoles of peptide) was transferred to the HBC plate. More generally, the amount of reaction mixture transferred was estimated to be about 50 pMoles of peptide. […] The HBC plates were incubated for 0.5 to 1.5 hr at room temperature for complete binding of biotinylated peptides to plate-bound streptavidin. The HBC plates were then washed extensively with PBS/Tween. Five washes were done routinely and additional wash steps were added if the wash solution removed from the plate had measurable radioactivity as detected using a Geiger counter. This step is essential to obtaining a good the signal to noise ratio because the fraction of radioactivity incorporated in the peptides was a tiny fraction of the total in the reaction mixture. The wells were air-dried. A volume of 40-50 μl of microScint-20 (Packard Instruments) was added to each well. The plates were covered with stick-on film sheet. Radioactive emissions were measured in a TopCount NXT Microplate Scintillation and Luminescence Counter (Packard Instruments). Typically samples were counted for 5 minutes (or more) to improve the signal to noise ratio when counts were low. […]

Substance | phosphorylation by PKC epsilon
118 (RPQNTLKASKKKKRASFKRK) [compound 118] | 89
119 (KKRFSFKKSFKLSGFSFKKN) [compound 119] | 81
120 (AKRRRLSSLRASTSK) [compound 120] | 56
121 (LRRRSLRRSNSISKSPGP) [compound 121] | 49
122 (RAITSTLASSFKRRR) [compound 122] | 72
123 (KKRFSFKKSFKLSGFSFKKN) [compound 123] | 67
124 (PRLIRRGSKKRPAR) [compound 124] | 49
125 (PLKEKKRERKTSSKSSVRKR) [compound 125] | 48
126 (KAIKAIEGGQKFARKSTRRS) [compound 126] | 69
127 (SQVQKQRSAGSFKRNSIKKI) [compound 127] | 32
128 (QQVDRERPHVRRRRGTFKRS) [compound 128] | 32
129 (VQRHRSMRKTFARYLSFRRD) [compound 129] | 65
130 (EYLERRASRRRAV) [compound 130] | 46
131 (WKGKRRSKARKKRK) [compound 131] | 43
132 (GFLNEPLSSKSQRRKSLKLK) [compound 132] | 47
133 (LEKRGMLGKRPRRKSSRRKK) [compound 133] | 31
134 (RSRSRSRSKSKDKRKSRKRS) [compound 134] | 32
135 (KKKFRTPSFLKKSKK) [compound 135] | 27
136 (RARRDSLKKIEIW) [compound 136] | 33
137 (PSKSPSKKKKKFRTPSFLKK) [compound 137] | 32
138 (EYLERRASRRRAV) [compound 138] | 27
139 (RPTPGDGEKRSRIKKSKKRK) [compound 139] | 24
140 (TELEGGFSRQRKRKLSFRRR) [compound 140] | 27
141 (VTDSQKRREILSRRPSYRKI) [compound 141] | 31
142 (ERHVAQKKSRLRRRASQLKI) [compound 142] | 28
143 (VRYTPYTISPYNRKGSFRKQ) [compound 143] | 21
144 (LSSMFGTLPRKSRKGSVRKQ) [compound 144] | 24

target: T2, PKC-zeta (Homo sapiens, UniProt Q05513); assay: In vitro kinase assay: peptide phosphorylation by PKC-zeta; assay type: biochemical; conditions: peptide concentration 1 uM
T2 construct: purchased Calbiochem
T2 sequence (Q05513 1-592): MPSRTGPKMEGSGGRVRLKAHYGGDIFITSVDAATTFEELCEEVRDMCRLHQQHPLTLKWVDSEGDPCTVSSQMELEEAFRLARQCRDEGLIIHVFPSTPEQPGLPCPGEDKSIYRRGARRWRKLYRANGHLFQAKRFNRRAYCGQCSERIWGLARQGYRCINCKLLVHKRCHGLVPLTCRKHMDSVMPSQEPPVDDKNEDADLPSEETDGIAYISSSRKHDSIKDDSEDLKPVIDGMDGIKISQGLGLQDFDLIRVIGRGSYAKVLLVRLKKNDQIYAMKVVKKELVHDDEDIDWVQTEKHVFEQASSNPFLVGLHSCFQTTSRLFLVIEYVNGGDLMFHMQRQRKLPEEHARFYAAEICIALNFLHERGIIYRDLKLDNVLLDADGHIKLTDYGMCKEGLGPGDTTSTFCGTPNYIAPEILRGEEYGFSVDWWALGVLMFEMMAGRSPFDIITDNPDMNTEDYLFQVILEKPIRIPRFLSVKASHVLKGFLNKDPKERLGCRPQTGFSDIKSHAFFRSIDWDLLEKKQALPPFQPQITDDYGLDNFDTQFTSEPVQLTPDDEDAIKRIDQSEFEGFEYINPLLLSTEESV
Method: as §1, §2, §3, §4, §5

Substance | phosphorylation by PKC zeta
118 (RPQNTLKASKKKKRASFKRK) [compound 118] | 46
119 (KKRFSFKKSFKLSGFSFKKN) [compound 119] | 20
120 (AKRRRLSSLRASTSK) [compound 120] | 43
121 (LRRRSLRRSNSISKSPGP) [compound 121] | 60
122 (RAITSTLASSFKRRR) [compound 122] | 20
123 (KKRFSFKKSFKLSGFSFKKN) [compound 123] | 20
124 (PRLIRRGSKKRPAR) [compound 124] | 45
125 (PLKEKKRERKTSSKSSVRKR) [compound 125] | 13
126 (KAIKAIEGGQKFARKSTRRS) [compound 126] | 46
127 (SQVQKQRSAGSFKRNSIKKI) [compound 127] | 19
128 (QQVDRERPHVRRRRGTFKRS) [compound 128] | 14
129 (VQRHRSMRKTFARYLSFRRD) [compound 129] | 51
130 (EYLERRASRRRAV) [compound 130] | 36
131 (WKGKRRSKARKKRK) [compound 131] | 7
132 (GFLNEPLSSKSQRRKSLKLK) [compound 132] | 19
133 (LEKRGMLGKRPRRKSSRRKK) [compound 133] | 27
134 (RSRSRSRSKSKDKRKSRKRS) [compound 134] | 5
135 (KKKFRTPSFLKKSKK) [compound 135] | 11
136 (RARRDSLKKIEIW) [compound 136] | 6
137 (PSKSPSKKKKKFRTPSFLKK) [compound 137] | 4
138 (EYLERRASRRRAV) [compound 138] | 31
139 (RPTPGDGEKRSRIKKSKKRK) [compound 139] | 1
140 (TELEGGFSRQRKRKLSFRRR) [compound 140] | 24
141 (VTDSQKRREILSRRPSYRKI) [compound 141] | 26
142 (ERHVAQKKSRLRRRASQLKI) [compound 142] | 22
143 (VRYTPYTISPYNRKGSFRKQ) [compound 143] | 22
144 (LSSMFGTLPRKSRKGSVRKQ) [compound 144] | 16

same assay, conditions: peptide concentration 10 uM

Substance | phosphorylation by PKC zeta
118 (RPQNTLKASKKKKRASFKRK) [compound 118] | 57
119 (KKRFSFKKSFKLSGFSFKKN) [compound 119] | 20
120 (AKRRRLSSLRASTSK) [compound 120] | 34
121 (LRRRSLRRSNSISKSPGP) [compound 121] | 56
122 (RAITSTLASSFKRRR) [compound 122] | 17
123 (KKRFSFKKSFKLSGFSFKKN) [compound 123] | 20
124 (PRLIRRGSKKRPAR) [compound 124] | 32
125 (PLKEKKRERKTSSKSSVRKR) [compound 125] | 12
126 (KAIKAIEGGQKFARKSTRRS) [compound 126] | 56
127 (SQVQKQRSAGSFKRNSIKKI) [compound 127] | 19
128 (QQVDRERPHVRRRRGTFKRS) [compound 128] | 9
129 (VQRHRSMRKTFARYLSFRRD) [compound 129] | 31
130 (EYLERRASRRRAV) [compound 130] | 39
131 (WKGKRRSKARKKRK) [compound 131] | 6
132 (GFLNEPLSSKSQRRKSLKLK) [compound 132] | 61
133 (LEKRGMLGKRPRRKSSRRKK) [compound 133] | 30
134 (RSRSRSRSKSKDKRKSRKRS) [compound 134] | 5
135 (KKKFRTPSFLKKSKK) [compound 135] | 13
136 (RARRDSLKKIEIW) [compound 136] | 9
137 (PSKSPSKKKKKFRTPSFLKK) [compound 137] | 5
138 (EYLERRASRRRAV) [compound 138] | 61
139 (RPTPGDGEKRSRIKKSKKRK) [compound 139] | 1
140 (TELEGGFSRQRKRKLSFRRR) [compound 140] | 49
141 (VTDSQKRREILSRRPSYRKI) [compound 141] | 78
142 (ERHVAQKKSRLRRRASQLKI) [compound 142] | 37
143 (VRYTPYTISPYNRKGSFRKQ) [compound 143] | 79
144 (LSSMFGTLPRKSRKGSVRKQ) [compound 144] | 54
